PMC4338043 (PLoS ONE, 2015)

Key:
AUC [1] = target: the molecule itself; test: AUC
AUC [2] = target: the molecule itself; test: AUC; remark: listed apart in the source
SEC = target: the molecule itself; test: SEC

Row | Protein | stoichiometry N (AUC [1]) | stoichiometry N (AUC [2]) | stoichiometry N (SEC)
1 | Burkholderia thailandensis inosine-5'-monophosphate dehydrogenase (enzyme, Burkholderia thailandensis strain E264, UniProt Q2SWW9 1-486, looked up, also called IMPDHbt; class II IMPDH) MRLIQKALTFDDVLLVPAFSDVLPRDTSLKTQLTRHISLNMPLVSAAMDTVTEGRLAIAMAQQGGVGIVHKNLTPVEQAREVAKVKRFESGVVRDPITVPPSMKVRDVIALSRQHGISGFPVLEGPKLVGIVTNRDLRFETRLDEPVKSIMTPRERLVTVAEGTPLAEAKALMHSHRLERVLVVNDAFELRGLMTVKDITKQTEHPEACKDEHGKLRVGAAVGVGADNEERVELLVQAGVDVIVVDTAHGHSKGVLERVRWVKQNFPKVEVIGGNIATAAAAKALVEYGADAVKVGIGPGSICTTRIVAGVGVPQISAIANVSDALRGTGVPCIADGGIRFSGDVSKALAAGANAVMMGSMFAGTEEAPGDVFLYQGRQYKSYRGMGSVGAMKDGAADRYFQDNSANIDKLVPEGIEGRVAYKGSVNAIIFQLIGGVRASMGYCGCKTIAEMHEKAEFVEITAAGMRESHVHDVQITKEAPNYHVD | 4 | 8 | ~4
2 | Neisseria meningitidis inosine-5'-monophosphate dehydrogenase (enzyme, Neisseria meningitidis strain FAM18, UniProt Q9JZB5 1-487, looked up, also called IMPDHnm; class I IMPDH) MRIVEKAYTFDDVLLVPAHSTVLPRDVKLQTKLTREITLNLPLLSAAMDTVTEARLAISMAQEGGIGIIHKNMPPEMQARAVSKVKRHESGVVKDPVTVAPTTLIREVLEMRAQRKRKMSGLPVVENGKVVGIVTNRDLRFENRVDLPVSAIMTPRERLVTVPEGTSIDEARELMHTHKVERVLVLNEKDELKGLITVKDILKTTEFPNANKDSEGRLRVGAAVGTGGDTEERVKALVEAGVDVIVVDTAHGHSQGVIDRVRWVKETYPHIQVIGGNIATAKAALDLVAAGADAVKVGIGPGSICTTRIVAGVGVPQLTAIHNVAEALKGTGVPLIADGGIRFSGDIAKALAAGAYSVMLGGMFAGTEEAPGEIELYQGRSYKSYRGMGSLGAMSQGSADRYFQDKTDSTDKYVPEGIEGRVPYKGPIVNIIHQLTGGLRSSMGYLGCANIAEMHEKAEFVEITSAGMSESHVHDVQITKEAPNYHR | 8 |  | ~8
3 | Pseudomonas aeruginosa inosine-5'-monophosphate dehydrogenase (enzyme, UniProt Q9HXM5 1-489, looked up, also called IMPDHpa; class I IMPDH) MLRISQEALTFDDVLLIPGYSEVLPKDVSLKTRLTRGIELNIPLVSAAMDTVTEARLAIAMAQEGGIGIIHKNMGIEQQAAEVRKVKKHETAIVRDPVTVTPSTKIIELLQMAREYGFSGFPVVEQGELVGIVTGRDLRVKPNAGDTVAAIMTPKDKLVTAREGTPLEEMKAKLYENRIEKMLVVDENFYLRGLVTFRDIEKAKTYPLASKDEQGRLRVGAAVGTGADTGERVAALVAAGVDVVVVDTAHGHSKGVIERVRWVKQTFPDVQVIGGNIATAEAAKALAEAGADAVKVGIGPGSICTTRIVAGVGVPQISAIANVAAALEGTGVPLIADGGIRFSGDLAKAMVAGAYCVMMGSMFAGTEEAPGEIELFQGRSYKSYRGMGSLGAMSGSQGSSDRYFQDASAGAEKLVPEGIEGRVPYKGALSAIVHQLMGGLRAAMGYTGSADIQQMRTQPQFVRITGAGMAESHVHDVQITKEAPNYRVG |  | 8 | ~8
4 | Staphylococcus aureus inosine-5'-monophosphate dehydrogenase (enzyme, Staphylococcus aureus strain N315, UniProt P99106 1-488, looked up, also called IMPDHsa; class II IMPDH) MWESKFAKESLTFDDVLLIPAQSDILPKDVDLSVQLSDKVKLNIPVISAGMDTVTESKMAIAMARQGGLGVIHKNMGVEEQADEVQKVKRSENGVISNPFFLTPEESVYEAEALMGKYRISGVPIVDNKEDRNLVGILTNRDLRFIEDFSIKIVDVMTQENLITAPVNTTLEEAEKILQKHKIEKLPLVKDGRLEGLITIKDIEKVIEFPNAAKDEHGRLLVAAAIGISKDTDIRAQKLVEAGVDVLVIDTAHGHSKGVIDQVKHIKKTYPEITLVAGNVATAEATKDLFEAGADIVKVGIGPGSICTTRVVAGVGVPQITAIYDCATEARKHGKAIIADGGIKFSGDIIKALAAGGHAVMLGSLLAGTEESPGATEIFQGRQYKVYRGMGSLGAMEKGSNDRYFQEDKAPKKFVPEGIEGRTAYKGALQDTIYQLMGGVRAGMGYTGSHDLRELREEAQFTRMGPAGLAESHPHNIQITKESPNYSF | 4 | 8 | ~4
5 | Legionella pneumophila subsp. pneumophila inosine-5'-monophosphate dehydrogenase (enzyme, also called IMPDHlpp; class I IMPDH) MPLSIVQQSLTFDDVLLVPAHSTILPKDVSLKTKLTRAIHLNMPLISAAMDTVTEARLAIALAQEGGLGIIHKNMSIADQAEEVRRVKKFESGMVKDPISVTPDLTVKELLAVMTKYNFSGVPVVDGKHLVGIVTSRDIRFETNMNLTVAQVMTPKGRLVTVKEGASREEVRSLLHKHRIEKLLVVNENFELRGLITVKDIQKAKDNPYACKDSFEQLRVGAAVGVGEGTDERVAALVESGVDVIVVDTAHGHSQGVLNRVKWIKKNYPDVQVIGGNIATAAAARDLYEAGADAVKVGIGPGSICTTRIVTGVGIPQISAIANVAQELKGIIPVIADGGIRFSGDVCKALAAGADTVMLGSMFAGTEESPGEIELYQGRTYKNYRGMGSIGAMSLAQGSSDRYFQDASLGTEKLVPEGIEGRVPYKGPVQTIIHQLLGGLRSCMGYTGCATIEELHSKTEFVQVTNAGMRESHVHDVSITKQAPNYQVDN | 8 |  | ~8
